From US20220211812A1 (Bristol-Myers Squibb, published 2022)

T1: human RXFP1 receptor (human, UniProt Q9HBX9 1-757)
T1 sequence (looked up): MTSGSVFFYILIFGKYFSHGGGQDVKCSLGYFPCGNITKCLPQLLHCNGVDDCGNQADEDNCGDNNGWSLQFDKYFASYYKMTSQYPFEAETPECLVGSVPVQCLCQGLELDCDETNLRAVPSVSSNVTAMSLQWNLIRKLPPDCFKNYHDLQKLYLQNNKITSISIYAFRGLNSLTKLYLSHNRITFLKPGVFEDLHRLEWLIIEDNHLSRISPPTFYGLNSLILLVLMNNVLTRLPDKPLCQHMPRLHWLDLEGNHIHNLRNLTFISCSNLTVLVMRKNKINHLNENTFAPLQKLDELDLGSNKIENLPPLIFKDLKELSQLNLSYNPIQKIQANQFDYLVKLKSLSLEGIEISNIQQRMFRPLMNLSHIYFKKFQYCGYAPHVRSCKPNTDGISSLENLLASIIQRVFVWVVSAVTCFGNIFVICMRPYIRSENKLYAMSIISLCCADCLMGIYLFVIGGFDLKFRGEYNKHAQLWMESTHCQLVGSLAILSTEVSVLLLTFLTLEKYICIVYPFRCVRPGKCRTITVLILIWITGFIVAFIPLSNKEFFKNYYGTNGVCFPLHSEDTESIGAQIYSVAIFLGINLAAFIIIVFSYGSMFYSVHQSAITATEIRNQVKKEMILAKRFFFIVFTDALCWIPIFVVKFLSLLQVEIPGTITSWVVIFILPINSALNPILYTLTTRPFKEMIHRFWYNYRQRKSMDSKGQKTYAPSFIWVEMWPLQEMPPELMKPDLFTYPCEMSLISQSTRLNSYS

B1: AQ1-KGPKGP-Glu^γ-C14-COOH (ligand)
chain 1: XLYSALANKCCHVGCTKRSLARFC
chain 2: ASWMEEVIKLCGRELVRAQIAICGMSTWS
peptide: KGPKGPE
modifications: not fully specified; Glu^γ bonded by amide to fatty acid -C14-COOH; oxime-linked to pAcF of the A chain; pAcF (para-acetyl-L-phenylalanine) at position 1, oxime-linked to PK enhancer KGPKGP-Glu^γ-C14-COOH
B2: AQ1-KK-Glu^γ-C15-COOH (ligand)
chain 1: XLYSALANKCCHVGCTKRSLARFC
chain 2: ASWMEEVIKLCGRELVRAQIAICGMSTWS
peptide: KKE
modifications: not fully specified; Glu^γ bonded by amide to fatty acid -C15-COOH; oxime-linked to pAcF of the A chain; pAcF (para-acetyl-L-phenylalanine) at position 1, oxime-linked to PK enhancer …
B3: AQ1-GSPGSP-Glu^γ-C14-COOH (ligand)
chain 1: XLYSALANKCCHVGCTKRSLARFC
chain 2: ASWMEEVIKLCGRELVRAQIAICGMSTWS
peptide: GSPGSPE
modifications: not fully specified; Glu^γ bonded by amide to fatty acid -C14-COOH; oxime-linked to pAcF of the A chain; pAcF (para-acetyl-L-phenylalanine) at position 1, oxime-linked to PK enhancer GSPGSP-Glu^γ-C14-COOH
B4: AQ1-EGGGP-Glu^γ-C14-COOH (ligand)
chain 1: XLYSALANKCCHVGCTKRSLARFC
chain 2: ASWMEEVIKLCGRELVRAQIAICGMSTWS
peptide: EGGGPE
modifications: not fully specified; Glu^γ bonded by amide to fatty acid -C14-COOH; oxime-linked to pAcF of the A chain; pAcF (para-acetyl-L-phenylalanine) at position 1, oxime-linked to PK enhancer EGGGP-Glu^γ-C14-COOH
B5: AQ1-Spermine-Glu^γ-C14-COOH (ligand)
chain 1: XLYSALANKCCHVGCTKRSLARFC
chain 2: ASWMEEVIKLCGRELVRAQIAICGMSTWS
modifications: not fully specified; pAcF (para-acetyl-L-phenylalanine) at position 1, oxime-linked to PK enhancer Spermine-Glu^γ-C14-COOH (compound 27 of Example 6)
B6: AQ1-KGGEEKKKEKEKEPKGGEEKKKEKEK-Glu^γ-C15-COOH (ligand)
chain 1: XLYSALANKCCHVGCTKRSLARFC
chain 2: ASWMEEVIKLCGRELVRAQIAICGMSTWS
peptide: KGGEEKKKEKEKEPKGGEEKKKEKEKE
modifications: not fully specified; Glu^γ bonded by amide to fatty acid -C15-COOH; oxime-linked to pAcF of the A chain; pAcF (para-acetyl-L-phenylalanine) at position 1, oxime-linked to PK enhancer KGGEEKKKEKEKEPKGGEEKKKEKEK-Glu^γ-C15-COOH
B7: AQ1-KGPGSE-Glu^γ-C14-COOH (ligand)
chain 1: XLYSALANKCCHVGCTKRSLARFC
chain 2: ASWMEEVIKLCGRELVRAQIAICGMSTWS
peptide: KGPGSEE
modifications: not fully specified; Glu^γ bonded by amide to fatty acid -C14-COOH; oxime-linked to pAcF of the A chain; pAcF (para-acetyl-L-phenylalanine) at position 1, oxime-linked to PK enhancer KGPGSE-Glu^γ-C14-COOH
B8: AQ1-KGP-Glu^γ-C14-COOH (ligand)
chain 1: XLYSALANKCCHVGCTKRSLARFC
chain 2: ASWMEEVIKLCGRELVRAQIAICGMSTWS
peptide: KGPE
modifications: not fully specified; Glu^γ bonded by amide to fatty acid -C14-COOH; oxime-linked to pAcF of the A chain; pAcF (para-acetyl-L-phenylalanine) at position 1, oxime-linked to PK enhancer KGP-Glu^γ-C14-COOH
B9: AQ1-GGGGS-Glu^γ (SEQ ID NO: 139)-C14-COOH (ligand)
chain 1: XLYSALANKCCHVGCTKRSLARFC
chain 2: ASWMEEVIKLCGRELVRAQIAICGMSTWS
peptide: GGGGSE
modifications: not fully specified; Glu^γ bonded by amide to fatty acid -C14-COOH (-(C=O)-(CH2)13-COOH); oxime-linked to pAcF of the A chain; modified para-acetyl-L-phenylalanine at the N-terminus (position 1), oxime-linked to PK enhancer GGGGS-Glu^γ-C14-COOH (Formula III)
B10: AQ1-GGGGP-Glu^γ-C14-COOH (ligand)
chain 1: XLYSALANKCCHVGCTKRSLARFC
chain 2: ASWMEEVIKLCGRELVRAQIAICGMSTWS
peptide: GGGGPE
modifications: not fully specified; Glu^γ bonded by amide to fatty acid -C14-COOH; oxime-linked to pAcF of the A chain; pAcF (para-acetyl-L-phenylalanine) at position 1, oxime-linked to PK enhancer GGGGP-Glu^γ-C14-COOH
B11: AQ1-EAQKAQAEAQKAQAEAQKAQA-Glu^γ-C15-COOH (ligand)
chain 1: XLYSALANKCCHVGCTKRSLARFC
chain 2: ASWMEEVIKLCGRELVRAQIAICGMSTWS
peptide: EAQKAQAEAQKAQAEAQKAQAE
modifications: not fully specified; Glu^γ bonded by amide to fatty acid -C15-COOH; oxime-linked to pAcF of the A chain; pAcF (para-acetyl-L-phenylalanine) at position 1, oxime-linked to PK enhancer EAQKAQAEAQKAQAEAQKAQA-Glu^γ-C15-COOH
B12: AQ1-PEG36-Glu-C13-CH3 (ligand)
chain 1: XLYSALANKCCHVGCTKRSLARFC
chain 2: ASWMEEVIKLCGRELVRAQIAICGMSTWS
modifications: not fully specified; pAcF (para-acetyl-L-phenylalanine) at position 1, oxime-linked to PK enhancer PEG36-Glu-C13-CH3
B13: AQ1-SGGGS-Glu^γ-C14-COOH (ligand)
chain 1: XLYSALANKCCHVGCTKRSLARFC
chain 2: ASWMEEVIKLCGRELVRAQIAICGMSTWS
peptide: SGGGSE
modifications: not fully specified; Glu^γ bonded by amide to fatty acid -C14-COOH; oxime-linked to pAcF of the A chain; pAcF (para-acetyl-L-phenylalanine) at position 1, oxime-linked to PK enhancer SGGGS-Glu^γ-C14-COOH
B14: AQ1-KGGGSE-Glu^γ-C14-COOH (ligand)
chain 1: XLYSALANKCCHVGCTKRSLARFC
chain 2: ASWMEEVIKLCGRELVRAQIAICGMSTWS
peptide: KGGGSEE
modifications: not fully specified; Glu^γ bonded by amide to fatty acid -C14-COOH; oxime-linked to pAcF of the A chain; pAcF (para-acetyl-L-phenylalanine) at position 1, oxime-linked to PK enhancer KGGGSE-Glu^γ-C14-COOH
B15: AQ1-Glu-C13-COOH (ligand)
chain 1: XLYSALANKCCHVGCTKRSLARFC
chain 2: ASWMEEVIKLCGRELVRAQIAICGMSTWS
modifications: not fully specified; pAcF (para-acetyl-L-phenylalanine) at position 1, oxime-linked to PK enhancer Glu-C13-COOH
B16: AQ1-PEG36-Glu-C13-COOH (ligand)
chain 1: XLYSALANKCCHVGCTKRSLARFC
chain 2: ASWMEEVIKLCGRELVRAQIAICGMSTWS
modifications: not fully specified; pAcF (para-acetyl-L-phenylalanine) at position 1, oxime-linked to PK enhancer PEG36-Glu-C13-COOH
B17: AQ1-KK-Glu^γ-C14-CH3 (ligand)
chain 1: XLYSALANKCCHVGCTKRSLARFC
chain 2: ASWMEEVIKLCGRELVRAQIAICGMSTWS
peptide: KKE
modifications: not fully specified; Glu^γ bonded by amide to fatty acid -C14-CH3; oxime-linked to pAcF of the A chain; pAcF (para-acetyl-L-phenylalanine) at position 1, oxime-linked to PK enhancer KK-Glu^γ-C14-CH3
B18: AQ1-KK-Glu^γ-C13-COOH (ligand)
chain 1: XLYSALANKCCHVGCTKRSLARFC
chain 2: ASWMEEVIKLCGRELVRAQIAICGMSTWS
peptide: KKE
modifications: not fully specified; Glu^γ bonded by amide to fatty acid -C13-COOH; oxime-linked to pAcF of the A chain; pAcF (para-acetyl-L-phenylalanine) at position 1, oxime-linked to PK enhancer …
B19: AQ1-KKGGS-Glu^γ -C15-COOH (ligand)
chain 1: XLYSALANKCCHVGCTKRSLARFC
chain 2: ASWMEEVIKLCGRELVRAQIAICGMSTWS
peptide: KKGGSE
modifications: not fully specified; Glu^γ bonded by amide to fatty acid -C15-COOH; oxime-linked to pAcF of the A chain; pAcF (para-acetyl-L-phenylalanine) at position 1, oxime-linked to PK enhancer KKGGS-Glu^γ-C15-COOH
B20: AQ1-EGGS-Glu^γ-C14-COOH (ligand)
chain 1: XLYSALANKCCHVGCTKRSLARFC
chain 2: ASWMEEVIKLCGRELVRAQIAICGMSTWS
peptide: EGGSE
modifications: not fully specified; Glu^γ bonded by amide to fatty acid -C14-COOH; oxime-linked to pAcF of the A chain; pAcF (para-acetyl-L-phenylalanine) at position 1, oxime-linked to PK enhancer EGGS-Glu^γ-C14-COOH
B21: AQ1-20kDa PEG (ligand)
chain 1: XLYSALANKCCHVGCTKRSLARFC
chain 2: ASWMEEVIKLCGRELVRAQIAICGMSTWS
modifications: pAcF (para-acetyl-L-phenylalanine) at position 1, oxime-linked to 20 kDa PEG
B22: AQ1-KK-Glu^γ-C14-COOH (ligand)
chain 1: XLYSALANKCCHVGCTKRSLARFC
chain 2: ASWMEEVIKLCGRELVRAQIAICGMSTWS
peptide: KKE
modifications: not fully specified; Glu^γ bonded by amide to fatty acid -C14-COOH; oxime-linked to pAcF of the A chain; pAcF (para-acetyl-L-phenylalanine) at position 1, oxime-linked to PK enhancer …
B23: AQ1-KGGGS-Glu^γ-C14-COOH (ligand)
chain 1: XLYSALANKCCHVGCTKRSLARFC
chain 2: ASWMEEVIKLCGRELVRAQIAICGMSTWS
peptide: KGGGSE
modifications: not fully specified; Glu^γ bonded by amide to fatty acid -C14-COOH; oxime-linked to pAcF of the A chain; pAcF (para-acetyl-L-phenylalanine) at position 1, oxime-linked to PK enhancer KGGGS-Glu^γ-C14-COOH
B24: AQ1-EEEEEE-Glu^γ-C14-CH3 (ligand)
chain 1: XLYSALANKCCHVGCTKRSLARFC
chain 2: ASWMEEVIKLCGRELVRAQIAICGMSTWS
peptide: EEEEEEE
modifications: not fully specified; Glu^γ bonded by amide to fatty acid -C14-CH3; oxime-linked to pAcF of the A chain; pAcF (para-acetyl-L-phenylalanine) at position 1, oxime-linked to PK enhancer EEEEEE-Glu^γ-C14-CH3
B25: AQ1-Glu-C13-CH3 (ligand)
chain 1: XLYSALANKCCHVGCTKRSLARFC
chain 2: ASWMEEVIKLCGRELVRAQIAICGMSTWS
modifications: not fully specified; pAcF (para-acetyl-L-phenylalanine) at position 1, oxime-linked to PK enhancer Glu-C13-CH3

Target: T1, human RXFP1 receptor
Experiment: cell-based or functional assay

| Binder | hRXFP1/CHO-K1 cAMP EC50 (nM, avg) |
| --- | --- |
| B1 | 0.23 nM |
| B2 | 0.4 nM |
| B3 | 0.29 nM |
| B4 | 0.44 nM |
| B5 | 0.39 nM |
| B6 | 1.81 nM |
| B7 | 0.6 nM |
| B8 | 0.27 nM |
| B9 | 0.28 nM |
| B10 | 0.39 nM |
| B11 | 4.96 nM |
| B12 | 0.15 nM |
| B13 | 0.32 nM |
| B14 | 0.37 nM |
| B15 | 0.18 nM |
| B16 | 0.25 nM |
| B17 | 0.35 nM |
| B18 | 0.1 nM |
| B19 | 1.36 nM |
| B20 | 0.33 nM |
| B21 | 3.22 nM |
| B22 | 0.34 nM |
| B23 | 0.34 nM |
| B24 | 0.38 nM |
| B25 | 0.95 nM |
